How the values were obtained:
[1] = target: GST-obscurin-Ig58/Ig59^WT (human) (UniProt Q5VST9); experiment: pull-down; 12 ug GST fusion protein on glutathione-Sepharose with 5 ul of the translation reaction; 10 mM Tris-HCl pH 7.9, 150 mM NaCl, 0.5% NONIDET P-40, 1 mM DTT, 1.5 hrs at 4°C; anti-myc Western blot, densitometry normalised to GST protein
[2] = target: GST-linked titin ZIg9/ZIg10 (human) (UniProt Q8WZ42); experiment: SPR; Nicoya OpenSPR, GST-linked titin ZIg9/ZIg10 immobilised on an Au-GST chip; obscurin Ig58/Ig59 injected at 50 ul/min; 20 mM Tris pH 7.5, 50 mM NaCl; 27°C (methods; 22°C in the legend of S11 Fig); 1:1 interaction model

| Substance | bound fraction, fold over GST-Ig58/Ig59^MUT [1] [fold] | Kd [2] [nM] |
| --- | --- | --- |
| myc-tagged titin domains ZIg9/ZIg10 (from UniProt Q8WZ42-12 1-35991) (domain or fragment) | 2 | – |
| obscurin Ig58/Ig59 (wild type) (from UniProt Q5VST9 1-7968) (domain or fragment) | – | 108 |
| obscurin Ig58/Ig59 p.Arg4444Trp (domain or fragment) | – | 1600 |
